Columns and labels:
[1] = target: T1, AtPDC E1α G297S mutant, H6-tagged (Arabidopsis thaliana, UniProt P52901 18-389, G297S); experiment: SEC; purified recombinant AtPDC E1 on a Superose 12 column in 50 mM TES-NaOH, pH 7.4, 50 mM NaCl, 0.1 mM TPP, 0.2 mM MgCl2; fractions analysed by SDS-PAGE and immunoblotting; settings: both partners purified
T1 sequence (looked up): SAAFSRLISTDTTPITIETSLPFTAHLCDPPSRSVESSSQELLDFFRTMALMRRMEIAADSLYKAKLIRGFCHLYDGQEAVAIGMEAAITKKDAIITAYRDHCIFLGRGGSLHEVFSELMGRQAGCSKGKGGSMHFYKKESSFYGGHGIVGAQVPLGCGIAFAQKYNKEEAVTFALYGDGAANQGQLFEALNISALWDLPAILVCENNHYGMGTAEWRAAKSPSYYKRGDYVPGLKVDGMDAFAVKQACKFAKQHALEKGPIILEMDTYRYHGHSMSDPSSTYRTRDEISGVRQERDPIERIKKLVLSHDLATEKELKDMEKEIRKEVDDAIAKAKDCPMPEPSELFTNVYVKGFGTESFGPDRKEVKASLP

[2] = target: T2, AtPDC E1α S292D mutant, H6-tagged (Arabidopsis thaliana, UniProt P52901 18-389, S292D); experiment: as above; settings: both partners purified
T2 sequence (looked up): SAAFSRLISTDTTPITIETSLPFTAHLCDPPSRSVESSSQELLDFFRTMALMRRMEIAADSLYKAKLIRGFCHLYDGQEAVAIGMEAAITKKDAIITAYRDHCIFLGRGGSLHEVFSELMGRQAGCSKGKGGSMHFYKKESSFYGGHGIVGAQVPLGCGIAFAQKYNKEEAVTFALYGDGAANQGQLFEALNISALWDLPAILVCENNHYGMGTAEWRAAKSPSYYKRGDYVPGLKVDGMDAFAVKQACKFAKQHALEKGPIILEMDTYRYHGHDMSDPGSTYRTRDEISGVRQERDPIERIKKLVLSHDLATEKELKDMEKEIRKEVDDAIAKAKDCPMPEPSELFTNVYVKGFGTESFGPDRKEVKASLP

[3] = target: T3, AtPDC E1α D295A mutant, H6-tagged (Arabidopsis thaliana, UniProt P52901 18-389, D295A); experiment: as above; settings: both partners purified
T3 sequence (looked up): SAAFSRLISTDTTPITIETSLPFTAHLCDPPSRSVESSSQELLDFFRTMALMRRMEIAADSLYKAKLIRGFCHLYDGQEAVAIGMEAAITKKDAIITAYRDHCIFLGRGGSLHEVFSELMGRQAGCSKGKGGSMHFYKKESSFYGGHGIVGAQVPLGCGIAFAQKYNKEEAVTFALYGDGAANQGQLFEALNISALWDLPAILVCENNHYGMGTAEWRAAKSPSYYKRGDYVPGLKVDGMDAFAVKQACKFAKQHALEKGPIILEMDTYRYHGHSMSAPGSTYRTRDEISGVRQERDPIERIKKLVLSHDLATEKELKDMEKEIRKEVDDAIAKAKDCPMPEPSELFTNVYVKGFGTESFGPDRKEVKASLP

[4] = target: T4, AtPDC E1α D295N mutant, H6-tagged (Arabidopsis thaliana, UniProt P52901 18-389, D295N); experiment: as above; settings: both partners purified
T4 sequence (looked up): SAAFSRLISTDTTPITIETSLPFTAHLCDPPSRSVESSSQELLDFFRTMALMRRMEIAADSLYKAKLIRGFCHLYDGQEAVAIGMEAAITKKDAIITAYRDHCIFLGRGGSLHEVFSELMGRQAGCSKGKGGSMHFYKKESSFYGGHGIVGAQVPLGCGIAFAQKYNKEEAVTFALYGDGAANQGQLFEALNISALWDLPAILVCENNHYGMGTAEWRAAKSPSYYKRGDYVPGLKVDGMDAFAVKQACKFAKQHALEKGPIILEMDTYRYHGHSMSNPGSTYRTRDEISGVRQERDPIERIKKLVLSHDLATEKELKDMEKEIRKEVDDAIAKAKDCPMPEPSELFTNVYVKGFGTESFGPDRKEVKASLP

[5] = target: T5, Arabidopsis thaliana mitochondrial pyruvate dehydrogenase E1α subunit (AtPDC E1α), wild type, H6-tagged (Arabidopsis thaliana, UniProt P52901 18-389); experiment: pull-down; H6-E1α and FLAG-E1β coexpressed in E. coli; soluble fraction on a HiTrap chelating column charged with NiSO4 (immobilized metal affinity chromatography); E1α detected with monoclonal anti-E1α, E1β with anti-FLAG by immunoblot; settings: partners not purified
T5 sequence (looked up): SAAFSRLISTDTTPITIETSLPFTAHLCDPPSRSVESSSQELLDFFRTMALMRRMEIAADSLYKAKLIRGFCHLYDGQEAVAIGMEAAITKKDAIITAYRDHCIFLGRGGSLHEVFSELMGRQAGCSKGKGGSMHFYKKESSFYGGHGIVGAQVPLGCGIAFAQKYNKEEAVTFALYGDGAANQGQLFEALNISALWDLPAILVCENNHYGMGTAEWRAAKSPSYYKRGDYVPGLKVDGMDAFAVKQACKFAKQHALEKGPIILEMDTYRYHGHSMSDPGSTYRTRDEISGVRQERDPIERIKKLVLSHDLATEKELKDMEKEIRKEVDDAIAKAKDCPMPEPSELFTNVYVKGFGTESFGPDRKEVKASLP

- binding result [1]: binds
- binding result [2]: binds
- binding result [3]: binds
- binding result [4]: binds
- binding result [5]: binds
B1: Arabidopsis thaliana mitochondrial pyruvate dehydrogenase E1β subunit (AtPDC E1β), FLAG-tagged (enzyme, UniProt Q38799 30-363, looked up)
chain: AAGAKEMTVRDALNSAIDEEMSADPKVFVMGEEVGQYQGAYKITKGLLEKYGPERVYDTPITEAGFTGIGVGAAYAGLKPVVEFMTFNFSMQAIDHIINSAAKSNYMSAGQINVPIVFRGPNGAAAGVGAQHSQCYAAWYASVPGLKVLAPYSAEDARGLLKAAIRDPDPVVFLENELLYGESFPISEEALDSSFCLPIGKAKIEREGKDVTIVTFSKMVGFALKAAEKLAEEGISAEVINLRSIRPLDRATINASVRKTSRLVTVEEGFPQHGVCAEICASVVEESFSYLDAPVERIAGADVPMPYAANLERLALPQIEDIVRASKRACYRSK

— publication PMC3034952 (Enzyme Research, 2011)
